Experiments:
Test in all cases: G assay
[1] = molecular target: Peptide #1829, biotin-…
[2] = molecular target: …
[3] = molecular target: …; remark: listed apart in the source
[4] = molecular target: …; remark: listed apart in the source
[5] = molecular target: Peptide #1791, biotin-…
[6] = molecular target: Peptide #1852, biotin-[…]
[7] = molecular target: …; remark: listed apart in the source
[8] = molecular target: Peptide #1846, biotin-[…]
[9] = molecular target: Peptide #1841, biotin-…

Measured: binding result

B1: GST-INADL PDZ domain 3 fusion protein (other, not shown: a dimerising Fc or GST; small tags and cut ends)
chain: PGSDSSLFETYNVELVRKDGQSLGIRIVGYVGTSHTGEASGIYVKSIIPGSAAYHNGHIQVNDKIVAVDGVNIQGFANHDVVEVLRNAGQVVHLTLVRRKTSSSTSRIHRD
notes: also called INADL d3 (96.3); INADL D3
binds: [1] | [2]

B2: GST-PAR3 PDZ domain 3 fusion protein (other, not shown: a dimerising Fc or GST; small tags and cut ends)
chain: PREFLTFEVPLNDSGSAGLGVSVKGNRSKENHADLGIFVKSIINGGAASKDGRLRVNDQLIAVNGESLLGKTNQDAMETLRRSMSTEGNKRGMIQLIVASRISKCNELKSNSS
notes: also called PAR3 d3 (278.1); PAR3 D3
binds: [3] | [4] | [5] | [2]

B3: GST-RIM2 PDZ domain 1 fusion protein (other, not shown: a dimerising Fc or GST; small tags and cut ends)
chain: TLNEEHSHSDKHPVTWQPSKDGDRLIGRILLNKRLKDGSVPRDSGAMLGLKVVGGKMTESGRLCAFITKVKKGSLADTVGHLRPGDEVLEWNGRLLQGATFEEVYNIILESKPEPQVELVVSRPIG
notes: also called RIM2 (177.4); RIM-2 d1
not listed: [3]
binds: all other assays above

B4: GST-ZO-1 PDZ domain 2 fusion protein (other, not shown: a dimerising Fc or GST; small tags and cut ends)
chain: ISSQPAKPTKVTLVKSRKNEEYGLRLASHIFVKEISQDSLAARDGNIQEGDVVLKINGTVTENMSLTDAKTLIERSKGKLKMVVQRDRATLLNSS
notes: also called ZO-1 d2 (241.3); ZO-1 D2
not listed: [8]
binds: all other assays above

B5: GST-Syntrophin 1 alpha PDZ domain 1 fusion protein (other, not shown: a dimerising Fc or GST; small tags and cut ends)
chain: QRRRVTVRKADAGGLGISIKGGRENKMPILISKIFKGLAADQTEALFVGDAILSVNGEDLSSATHDEAVQVLKKTGKEVVLEVKYMKDVSPYFK
notes: also called Syntrophin 1 alpha d1 (52.5); Syntrophin 1 alpha D1
binds: [3]
